Test results reported in patent publication US20250108100A1, “C-TERMINAL FRAGMENT OF APOLIPOPROTEIN E AND APPLICATION THEREOF IN INHIBITING y-SECRETASE ACTIVITY” (SYNPHATEC (SHANGHAI) BIOPHARMACEUTICAL TECHNOLOGY CO., LTD., priority 2022, published 2025).
“Also recorded” adds a separate entry of the source.

Columns and labels:
[1] = system: APLP1; test: γ-cleavage of APLP1 expressed in HEK 293T cells (Western blot); format: cell-based; conditions: PF03084014 at 1 μM
Protocol: • a) A plasmid expressing the target protein in mammalian cells was constructed, and the protein expression promoter is CAG. • b) The target protein was expressed in HEK 293T cell line. Cells were subcultured one day before transfection, and transfection was performed when the degree of cell adhesion reached 70%-80%. The transfection reagent was lipofectamine2000 (ThermoFisher). • c) 4-6 hours post transfection, the medium were replaced with fresh cell culture medium. • d) 36-48 hours post transfection, the cells were lysed (10% 1M tris-HCl (pH=6.8), 4% SDS, 20% glycerol, 0.01% bromophenol blue), and the protein samples were collected and used for Western blot or stored in a −80° C. freezer. • e) Polyacrylamide gel electrophoresis. Before protein loading, the protein was boiled at 98° C. for 10 min, and then centrifuged at 12000 rpm for 10 min. Electrophoresis: 80V for the upper stacking gel; 120V for the lower separating gel. • f) Protein transfer. […]
Plasmids were transfected in HEK 293T or N2A cells for 36-48 hours and then lysed in cell lysis buffer [10% 1M tris-HCl (pH=6.8), 4% SDS, 20% glycerol, 0.01% bromophenol blue]. […] Finally, after washing 3 times with 1×TBST, the signal was detected by ECL Western blotting substrate (Solarbio, PE0010).

[2] = system: primary cultured mouse hippocampal or cortical neurons; test: Endogenous Aβ40 in primary cultured mouse cortical or hippocampal neurons (lentivirus, ELISA); format: cell-based; conditions: for endogenously produced Aβ40: lentivirus
Protocol: Primary cultured neurons were derived from the cortex or hippocampus of 16-day embryonic mice. The mouse cortex or hippocampus was obtained under a stereoscope, and was digested at 37° C. for 10 minutes with 20 U/ml papain (Worthington Company). After digestion, the neurons that exist in single-cell form were seeded with 100,000 neurons per well (24-well plate); the neurons were cultured in the neuron culture medium (Neurobasal medium; ThermoFisher Company) containing 2% B27 (ThermoFisher Company) and 1% penicillin/streptomycin; the fresh culture medium was changed once a week.
The experiment was performed according to the standard procedure in the ELISA analysis kit of Invitrogen Company. • a) The target protein was expressed in HEK 293T cell line. Cells were subcultured one day before transfection, and transfection was performed when the degree of cell adhesion reached 70%-80%. The transfection reagent was lipofectamine2000 (ThermoFisher). • b) 4-6 hours post transfection, medium were replaced with fresh cell culture medium. • c) 36-48 hours post transfection, the cell culture medium was collected, and then the ELISA process was performed or the cell culture medium was frozen in a −80° C. refrigerator. • d) 50 μl of standard samples and experimental samples were added to each well of the 96-well plate. • e) 50 μl of human-derived Aβ40 or Aβ42 or mouse-derived Aβ40 detection antibody was added to each well of the 96-well plate. • f) The above samples were shaken gently and placed at room temperature for 3 hours. • g) The liquid in the well were removed, and the plate was washed 4 times with 1× wash buffer. • h) 100 μl of the buffer containing 1× anti-Rabbit IgG HRP was added. • i) The plate was shaken gently and placed at room temperature for […]. • j) The liquid in the well were removed, and the well was washed 4 times with 1× wash buffer. • k) 100 μl of Stabilized Chromogen was added to each well, and the plate was placed in the dark for 30 minutes at room temperature. • l) 100 μl of Stop Solution was added to each well. • m) The absorbance at 450 nm was measured with a microplate reader. 2.4 qRT-PCR
• a) Construction of lentivirus expression plasmids, lentivirus-GFP and lentivirus-ApoE CT, which can be specifically expressed in neurons. • b) The lentivirus vectors were cotransfected with coat protein vectors (PSPAX2 and PMD2G) in HEK 293T cell line. Cells were subcultured one day before transfection, and transfection was performed when the degree of cell adhesion reached 70%-80%. […]
(§1) 48 hours after transfection of HEK 293T cells and N2A cells, or 4.5 days after lentivirus infection of neurons, media and lysates were collected. Aβ40 and Aβ42 in the culture medium and cell lysates were detected by an Aβ ELISA kit as indicated in the protocol. […]

[3] = system: APPΔΔICD; test: Aβ40 produced from APPΔΔICD co-expressed with BACE1 in HEK 293T cells (ELISA); format: cell-based, human
Protocol: The experiment was performed according to the standard procedure in the ELISA analysis kit of Invitrogen Company. • a) The target protein was expressed in HEK 293T cell line. Cells were subcultured one day before transfection, and transfection was performed when the degree of cell adhesion reached 70%-80%. […]
as §1

B1: ApoE CT: C-terminal fragment of ApoE, positions 216-299 of SEQ ID NO: 12; SEQ ID NO: 33 (protein)
chain: ARMEEMGSRTRDRLDEVKEQVAEVRAKLEEQAQQIRLQAEAFQARLKSWFEPLVEDMQRQWAGLVEKVQAAVGTSAAPVPSDNH
α-like CTF of APLP1 [1]: does not increase the α-like CTF of APLP1; also recorded: did not increase the α-like CTF | reduction in endogenous Aβ40 ([2]; mouse cortical and hippocampal neurons, lentiviral infection, vs GFP controls): 30% | endogenously produced Aβ40 ([2]; primary cultured mouse cortical neurons): about 73 % of the control group | endogenously produced Aβ40 ([2]; primary cultured mouse hippocampal neurons): about 71 % of the control group | endogenously produced Aβ40 ([2]; primary cultured mouse neurons, vs GFP control): can reduce the endogenous production of Aβ40 | Aβ40 produced by APPΔΔICD [3]: no longer reduces Aβ produced by APPΔΔICD; also recorded: does not affect Aβ40; also recorded: failed to reduce Aβ40
